Patent publication US12427210B2, “Compounds comprising a fibroblast activation protein ligand and use thereof” (priority 2019, dated 2025)

Experiments:
Assay in all cases: radioligand displacement, compound at 10 µM
Settings in all cases: remark: other sources report otherwise
[1] = target: 5-HT2B (h) (human), P41595
[2] = target: H1 (h) (human), P35367
[3] = target: T1, alpha 1A (h) (human), P35348
T1 chain: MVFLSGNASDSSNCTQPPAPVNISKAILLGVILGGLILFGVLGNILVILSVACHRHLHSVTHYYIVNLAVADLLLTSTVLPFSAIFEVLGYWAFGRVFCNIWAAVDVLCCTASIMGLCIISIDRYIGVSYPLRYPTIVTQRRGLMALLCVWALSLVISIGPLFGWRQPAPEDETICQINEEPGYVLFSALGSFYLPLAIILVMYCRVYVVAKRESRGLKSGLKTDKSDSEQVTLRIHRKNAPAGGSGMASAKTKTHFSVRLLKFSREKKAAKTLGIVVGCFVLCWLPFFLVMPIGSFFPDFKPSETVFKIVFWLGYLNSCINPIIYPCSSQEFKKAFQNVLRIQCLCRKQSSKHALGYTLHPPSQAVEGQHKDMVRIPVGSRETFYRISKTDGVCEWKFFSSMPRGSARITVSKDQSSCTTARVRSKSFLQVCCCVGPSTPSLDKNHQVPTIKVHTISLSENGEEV

[4] = target: 5-HT1B (h) (human), P28222
[5] = target: beta 2 (h) (human), P07550
[6] = target: 5-HT transporter (h) (human), P31645
[7] = target: CB2 (h) (human), P34972
[8] = target: T2, D2S (h) (human), P14416
T2 chain: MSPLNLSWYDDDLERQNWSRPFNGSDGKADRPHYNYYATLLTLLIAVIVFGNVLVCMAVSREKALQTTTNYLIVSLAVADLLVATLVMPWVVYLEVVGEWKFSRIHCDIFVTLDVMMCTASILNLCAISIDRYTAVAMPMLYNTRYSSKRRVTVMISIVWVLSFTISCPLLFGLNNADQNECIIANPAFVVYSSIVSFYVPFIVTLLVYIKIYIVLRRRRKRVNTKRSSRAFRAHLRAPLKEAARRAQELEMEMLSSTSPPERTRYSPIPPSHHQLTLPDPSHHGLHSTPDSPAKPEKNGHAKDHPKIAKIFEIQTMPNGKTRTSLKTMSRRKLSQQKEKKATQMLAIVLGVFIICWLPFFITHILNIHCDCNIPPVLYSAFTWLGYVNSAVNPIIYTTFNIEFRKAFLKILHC

[9] = target: T3, dopamine transporter (h) (human), Q01959
T3 chain: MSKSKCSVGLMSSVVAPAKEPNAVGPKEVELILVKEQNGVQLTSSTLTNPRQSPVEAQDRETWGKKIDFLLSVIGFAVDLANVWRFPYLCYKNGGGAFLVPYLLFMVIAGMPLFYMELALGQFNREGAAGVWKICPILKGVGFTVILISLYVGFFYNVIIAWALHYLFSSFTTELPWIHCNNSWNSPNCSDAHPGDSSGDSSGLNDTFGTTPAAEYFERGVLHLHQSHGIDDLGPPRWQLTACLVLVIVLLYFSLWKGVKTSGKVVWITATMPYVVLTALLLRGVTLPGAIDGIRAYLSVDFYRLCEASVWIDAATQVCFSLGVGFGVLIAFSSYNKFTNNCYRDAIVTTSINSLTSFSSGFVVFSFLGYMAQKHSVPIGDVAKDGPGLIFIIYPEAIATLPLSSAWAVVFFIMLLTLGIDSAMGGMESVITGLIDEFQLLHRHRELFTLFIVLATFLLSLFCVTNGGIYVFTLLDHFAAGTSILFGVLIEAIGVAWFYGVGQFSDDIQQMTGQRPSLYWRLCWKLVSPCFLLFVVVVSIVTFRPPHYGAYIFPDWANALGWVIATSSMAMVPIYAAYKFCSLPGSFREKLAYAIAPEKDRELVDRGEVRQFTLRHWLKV

[10] = target: T4, AR (h) (human), P10275
T4 chain: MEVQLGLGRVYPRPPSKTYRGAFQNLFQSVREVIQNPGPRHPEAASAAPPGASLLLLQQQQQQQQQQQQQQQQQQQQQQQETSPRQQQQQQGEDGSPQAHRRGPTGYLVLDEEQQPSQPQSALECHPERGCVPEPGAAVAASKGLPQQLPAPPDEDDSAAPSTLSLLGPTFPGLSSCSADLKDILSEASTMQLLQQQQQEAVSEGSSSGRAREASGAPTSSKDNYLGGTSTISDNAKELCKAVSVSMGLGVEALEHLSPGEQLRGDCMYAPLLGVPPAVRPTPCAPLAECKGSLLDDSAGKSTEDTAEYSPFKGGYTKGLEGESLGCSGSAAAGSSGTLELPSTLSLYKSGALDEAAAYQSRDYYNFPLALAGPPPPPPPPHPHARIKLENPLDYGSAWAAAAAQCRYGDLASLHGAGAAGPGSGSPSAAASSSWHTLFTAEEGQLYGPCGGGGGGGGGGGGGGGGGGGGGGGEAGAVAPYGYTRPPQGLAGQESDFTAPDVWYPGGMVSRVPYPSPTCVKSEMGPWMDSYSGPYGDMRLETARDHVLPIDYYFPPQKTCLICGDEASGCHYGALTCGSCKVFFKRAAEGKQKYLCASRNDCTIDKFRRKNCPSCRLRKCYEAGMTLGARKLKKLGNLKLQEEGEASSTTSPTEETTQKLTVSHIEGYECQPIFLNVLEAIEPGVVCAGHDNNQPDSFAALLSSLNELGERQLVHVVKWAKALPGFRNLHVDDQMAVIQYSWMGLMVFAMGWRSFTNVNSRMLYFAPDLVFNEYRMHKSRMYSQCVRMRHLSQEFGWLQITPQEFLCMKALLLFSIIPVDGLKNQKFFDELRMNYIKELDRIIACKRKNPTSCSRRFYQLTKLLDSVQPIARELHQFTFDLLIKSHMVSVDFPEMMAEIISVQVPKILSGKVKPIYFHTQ

[11] = target: V1a (h) (human), P37288

5-HT2B (h) (human), P41595, sequence (P41595 whole entry): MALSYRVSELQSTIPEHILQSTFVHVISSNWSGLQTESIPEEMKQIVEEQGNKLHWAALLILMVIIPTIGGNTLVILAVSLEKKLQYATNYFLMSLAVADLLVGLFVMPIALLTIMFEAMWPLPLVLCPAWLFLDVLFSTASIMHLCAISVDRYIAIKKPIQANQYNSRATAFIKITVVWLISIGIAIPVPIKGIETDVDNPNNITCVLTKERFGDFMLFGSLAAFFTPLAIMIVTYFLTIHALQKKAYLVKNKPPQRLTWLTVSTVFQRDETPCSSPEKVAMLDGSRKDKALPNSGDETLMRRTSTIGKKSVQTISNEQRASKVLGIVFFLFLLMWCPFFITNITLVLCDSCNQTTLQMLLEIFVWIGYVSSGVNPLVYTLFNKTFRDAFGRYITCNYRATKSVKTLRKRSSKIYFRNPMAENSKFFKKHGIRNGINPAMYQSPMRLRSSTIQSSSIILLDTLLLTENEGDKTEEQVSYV
H1 (h) (human), P35367, sequence (P35367 whole entry): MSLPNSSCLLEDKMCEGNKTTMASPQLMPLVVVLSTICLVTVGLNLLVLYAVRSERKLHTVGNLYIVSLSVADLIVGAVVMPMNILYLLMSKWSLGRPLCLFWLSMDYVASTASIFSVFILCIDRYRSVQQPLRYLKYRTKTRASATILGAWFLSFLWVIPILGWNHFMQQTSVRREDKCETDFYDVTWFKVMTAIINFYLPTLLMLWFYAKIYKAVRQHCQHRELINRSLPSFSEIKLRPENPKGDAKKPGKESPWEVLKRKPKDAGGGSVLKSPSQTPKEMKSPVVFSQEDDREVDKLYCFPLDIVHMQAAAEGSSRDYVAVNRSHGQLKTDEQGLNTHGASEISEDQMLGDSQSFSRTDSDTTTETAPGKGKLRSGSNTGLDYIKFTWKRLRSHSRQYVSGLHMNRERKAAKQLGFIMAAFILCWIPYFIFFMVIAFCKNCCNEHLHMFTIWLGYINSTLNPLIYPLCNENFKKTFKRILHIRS
CB2 (h) (human), P34972, sequence (P34972 whole entry): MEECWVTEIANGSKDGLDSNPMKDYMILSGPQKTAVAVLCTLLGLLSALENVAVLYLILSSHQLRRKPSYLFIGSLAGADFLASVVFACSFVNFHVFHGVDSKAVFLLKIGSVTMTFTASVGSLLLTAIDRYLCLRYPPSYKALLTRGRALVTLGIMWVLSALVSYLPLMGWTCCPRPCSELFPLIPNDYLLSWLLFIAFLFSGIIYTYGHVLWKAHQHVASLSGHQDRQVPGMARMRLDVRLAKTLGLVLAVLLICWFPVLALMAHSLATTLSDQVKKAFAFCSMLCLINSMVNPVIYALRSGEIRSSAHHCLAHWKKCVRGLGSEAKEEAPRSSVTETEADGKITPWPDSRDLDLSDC

B1: Hex-[Cys(tMeBn(DOTA-PP))-Pro-Pro-Thr-Gln-Phe-Cys]-Asp-NH2 (3BP-3407) (peptide)
peptide: CPPTQFCD
modifications: here or on the partner: N-terminal hexanoyl (Hex); Cys1 and Cys7 cyclised through tMeBn carrying DOTA-PP; C-terminal amide
[1]
  % Inhibition of Specific Binding: 2%
[2]
  % Inhibition of Specific Binding: 11%
[3]
  % Inhibition of Specific Binding: 2%
[4]
  % Inhibition of Specific Binding: -11%
[5]
  % Inhibition of Specific Binding: 4%
[6]
  % Inhibition of Specific Binding: -3%
[7]
  % Inhibition of Specific Binding: 2%
[8]
  % Inhibition of Specific Binding: 15%
[9]
  % Inhibition of Specific Binding: 12%
[10]
  % Inhibition of Specific Binding: 3%
[11]
  % Inhibition of Specific Binding: 16%

B2: Hex-[Cys(tMeBn(DOTA-AET))-Pro-Pro-Thr-Gln-Phe-Cys]-OH (3BP-3554) (peptide)
peptide: CPPTQFC
modifications: here or on the partner: N-terminal hexanoyl (Hex); Cys1 and Cys7 cyclised through tMeBn carrying DOTA-AET; free C-terminal acid (-OH)
[1]
  % Inhibition of Specific Binding: 3%
[2]
  % Inhibition of Specific Binding: 4%
[3]
  % Inhibition of Specific Binding: -12%
[4]
  % Inhibition of Specific Binding: 8%
[5]
  % Inhibition of Specific Binding: 8%
[6]
  % Inhibition of Specific Binding: -8%
[7]
  % Inhibition of Specific Binding: -5%
[8]
  % Inhibition of Specific Binding: -7%
[9]
  % Inhibition of Specific Binding: 7%
[10]
  % Inhibition of Specific Binding: -5%
[11]
  % Inhibition of Specific Binding: 1%
